For this series, the system named is T1, CC(C)(COP(=O)(O)OP(=O)(O)OC[C@H]1O[C@@H](n2cnc3c(N)ncnc32)[C@H](O)[C@@H]1OP(=O)(O)O)[C@@H](O)C(=O)NCCC(=O)NCCSC(=O)CCCCCCCCCCCCCCCNc1ccc([N+](=O)[O-])c2nonc12.
T1 construct: full length, HA tag kept (pEF-Bos-HA), HEK293 membrane fraction
As to the kind of experiment: auto-S-palmitoylation of HEK293 membranes, SDS-PAGE fluorescence normalised to tag Western blot. Type of series: cell-based, Mus musculus. The following applies: pH 7.4, 37 °C, labelled compound, covalent thioester at active-site Cys. In general terms: In western blotting, separated proteins are transferred to a membrane and probed.

Chain of mouse zDHHC17 (Mus musculus) (chain, as listed by the source): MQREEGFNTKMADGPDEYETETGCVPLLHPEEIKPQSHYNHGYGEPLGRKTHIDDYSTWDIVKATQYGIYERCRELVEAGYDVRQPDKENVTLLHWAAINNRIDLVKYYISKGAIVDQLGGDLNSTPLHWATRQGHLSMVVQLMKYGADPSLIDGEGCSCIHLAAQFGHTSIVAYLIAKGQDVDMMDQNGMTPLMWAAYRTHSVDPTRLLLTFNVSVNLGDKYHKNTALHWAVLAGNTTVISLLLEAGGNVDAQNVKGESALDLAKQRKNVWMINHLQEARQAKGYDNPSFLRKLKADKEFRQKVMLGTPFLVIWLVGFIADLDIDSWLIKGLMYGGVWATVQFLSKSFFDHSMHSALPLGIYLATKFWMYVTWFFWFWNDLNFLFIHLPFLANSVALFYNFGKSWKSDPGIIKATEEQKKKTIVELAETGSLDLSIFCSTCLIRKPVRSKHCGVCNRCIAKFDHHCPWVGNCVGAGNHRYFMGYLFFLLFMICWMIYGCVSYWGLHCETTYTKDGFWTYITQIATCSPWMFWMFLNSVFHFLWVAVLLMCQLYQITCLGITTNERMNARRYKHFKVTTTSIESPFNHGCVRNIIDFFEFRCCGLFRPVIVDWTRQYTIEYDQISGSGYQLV

In general, Km refers to the concentration of substrate that gives half-maximal velocity. Take mouse zDHHC17 (Mus musculus): the Km was 6.20 ± 1.20 µM.
